Measurements reported in US8148141.
Ends that are not written are not given here. carboxyfluorescein = carboxyfluorescein (fluorescent group)

Biological target: amylase
Assay: fluorescence of immobilized carboxyfluorescein-labeled peptide on chip, ex 490 nm / em 520 nm, 1.0 uM amylase, 25 C, 5 min

increase of the fluorescence intensity (fold): 10 times
B1: Lys(Rf)-Tyr-Gln-Ser-Trp-Arg-Tyr-Ser-Gln-Ala-Cys-NH2 (peptide)
peptide: K(carboxyfluorescein)YQSWRYSQAC-NH2
